T1: Flavobacterium johnsoniae FjXAL tyrosine ammonia lyase (Protein GI 146298870), SEQ ID NO: 1, His-tagged (N-terminal tag SEQ ID NO: 11) (Flavobacterium johnsoniae, UniProt A5FKY3)
T1 sequence (A5FKY3 1-506): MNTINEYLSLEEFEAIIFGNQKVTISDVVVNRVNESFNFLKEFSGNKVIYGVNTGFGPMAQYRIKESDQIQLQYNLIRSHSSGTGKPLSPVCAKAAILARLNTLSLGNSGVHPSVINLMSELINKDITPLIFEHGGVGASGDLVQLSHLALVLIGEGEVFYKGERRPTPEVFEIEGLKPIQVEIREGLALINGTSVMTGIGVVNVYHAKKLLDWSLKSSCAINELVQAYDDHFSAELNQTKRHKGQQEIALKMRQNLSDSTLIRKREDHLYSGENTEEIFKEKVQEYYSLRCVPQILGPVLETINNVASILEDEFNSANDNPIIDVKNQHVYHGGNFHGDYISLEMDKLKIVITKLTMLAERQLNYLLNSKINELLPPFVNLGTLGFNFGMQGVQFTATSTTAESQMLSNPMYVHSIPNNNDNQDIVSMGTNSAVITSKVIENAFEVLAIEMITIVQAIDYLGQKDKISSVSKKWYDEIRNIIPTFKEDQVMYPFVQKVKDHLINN

B1: Flavobacterium johnsoniae FjXAL tyrosine ammonia lyase (Protein GI 146298870), SEQ ID NO: 1, His-tagged (N-terminal tag SEQ ID NO: 11) (Flavobacterium … (protein)
chain: T1 sequence (A5FKY3 1-506)

Experiments:
[1] = target: T1, Flavobacterium johnsoniae FjXAL tyrosine ammonia lyase (Protein GI 146298870), SEQ ID NO: 1, His-tagged (N-terminal tag SEQ ID NO: 11); assay: In vitro kinetics of purified His-tagged FjXAL (tyrosine/phenylalanine ammonia lyase activity, absorbance at 315/295 nm); assay type: biochemical
Protocol: The tyrosine ammonia lyase activity may for instance be determined in accordance to the following method: Enzymatic assays are performed in 200 μL volumes in wells in a UV transparent 96-well plate, by following the increase in absorbance at 315 nm (pHCA) using spectrophotometry or HPLC with UV detection. The reaction mixtures contain 2 μg of purified protein and are initiated by adding 1 mM tyrosine or 6 mM after equilibration to 30° C. The enzymatic activity is calculated as U/g, where U is defined as μmol substrate converted per minute. Negative controls contain no purified protein. Kinetic constants Km and vmax are determined from assays containing 1.56 μM to 200 μM tyrosine. See also Kyndt et al. (2002).
Four of the enzymes were further purified by His-tag purification as follows. A DNA linker (5′ phosphorylated oligonucleotides CBJP559 and CBJP560, Table 5) was inserted in place of the sequence between the NdeI and BgIII site in plasmid pCDFDuet-1. This would result in the addition of the amino acids MAHHHHHHENLYFQ (SEQ ID NO: 11) to the N-terminal end of the polypeptides. […]
Enzymatic assays were performed in 200 μL volumes in wells in a UV transparent 96-well plate, by following the increase in absorbance at 315 nm (pHCA) or 295 nm (CA). […] The enzymatic activity was calculated as U/g, where U is defined as μmol substrate converted per minute.

[2] = tested on: E. coli BL21(DE3)pLysS cells; assay: Specific production of pHCA and CA by E. coli expressing TAL/PAL enzymes; assay type: cell-based, Escherichia coli; details: 24 h after supplementation, +/- standard deviation
Protocol: Plasmids carrying the genes were transformed into electrocompetent E. coli BL21(DE3)pLysS cells (Life Technologies) and selected on LBplates containing 50 ug/mL streptomycin. The strains were grown in M9 minimal media containing glucose as a carbon source, and expression was induced by adding 1 mM IPTG at an optical density at 600 nm of 0.6. After three hours of growth at 30° C. the cultures were supplemented with 2 mM tyrosine, phenylalanine or histidine. After further 24 hours, samples were withdrawn for determination of the optical density at 600 nm and for the isolation of the supernatant.
The concentration of pHCA and CA in the supernatant was quantified by high performance (HPLC) and compared to chemical standards. HPLC was done on a Thermo setup using a HS-F5 column and mobile phases: 5 mM ammonium formate pH 4.0 (A) and acetonitrile (B) at 1.5 mL min-1, using a gradient elution starting at 5% B. From 0.5 min after injection to 7 min, the fraction of B increased linearly from 5% to 60%, and between 9.5 min and 9.6 the fraction of B decreased back to 5%, and remaining there until 12m pHCA and CA were quantified by measuring absorbance at 333 nm and 277 nm, respectively. The production was tested without addition of precursors or the addition of either phenylalanine or tyrosine to the growth medium.
The specific production was calculated as micromolar (μM) concentration per unit of optical density of the culture at 600 nm, and standard deviations were calculated based on triplicate experiments. HaXAL1, HaXAL2 and FjXAL are the most specific enzymes and those that reach the highest yields.

Molecule	Kcat ([1]; 30° C, 1.56 μM to 200 μM tyrosine or 193 μM to 25 mM phenylalanine) [s⁻¹]	TAL/PAL ([1]; ratio of Kcat/Km for Tyr over Phe)	Specific production of CA ([2]; M9 + His (2 mM)) [μM OD600-1]	Specific production of pHCA ([2]; M9 + His (2 mM)) [μM OD600-1]	Specific production of CA ([2]; M9 + Phe (2 mM)) [μM OD600-1]	Specific production of pHCA ([2]; M9 + Phe (2 mM)) [μM OD600-1]	Specific production of CA ([2]; M9 + Tyr (2 mM)) [μM OD600-1]	Specific production of pHCA ([2]; M9 + Tyr (2 mM)) [μM OD600-1]
N[C@@H](Cc1ccc(O)cc1)C(=O)O [Tyr, tyrosine]	0.0212	3000						
B1			0 ± 0	91 ± 20	0.5 ± 0.4	76 ± 29	0 ± 0	440 ± 100

— patent publication US11306331B2, “Processes for the production of hydroxycinnamic acids using polypeptides having tyrosine ammonia lyase activity” (CysBio ApS, priority 2014, dated 2022)
